How the values were obtained:
HLA-A*02:01 [1] = assay: IEDB peptide-MHC binding, purified MHC/competitive/fluorescence; filed as Kd, often an IC50 or EC50 that approximates it; ≥ and ≤ were set here for values at or beyond the usual limits of such assays
HLA-A*02:03 = assay: as above
HLA-A*02:11 = assay: as above
HLA-A*02:12 = assay: as above
HLA-A*02:16 = assay: as above
HLA-A*02:19 = assay: as above
HLA-A*03:01 [2] = assay: as above; details: source organism: Entamoeba dispar SAW760
HLA-A*24:03 = assay: as above
HLA-A*26:01 [3] = assay: as above
HLA-A*29:02 = assay: as above; details: source organism: Entamoeba dispar SAW760
HLA-A*68:02 = assay: as above
HLA-A*69:01 = assay: as above
HLA-B*15:01 [4] = assay: as above
HLA-B*15:17 = assay: as above; details: source organism: Entamoeba dispar SAW760
HLA-B*18:01 [5] = assay: as above
HLA-B*27:03 = assay: as above
HLA-B*39:01 [6] = assay: as above
HLA-B*46:01 [7] = assay: as above
HLA-B*51:01 = assay: as above
HLA-B*57:01 [8] = assay: as above
HLA-B*08:01 = assay: as above; details: source organism: Shigella boydii Sb227
HLA-A*31:01 = assay: as above; details: source organism: Coxiella burnetii RSA 331
HLA-A*02:01 [9] = assay: IEDB peptide-MHC binding, purified MHC/direct/fluorescence; filed as Kd, often an IC50 or EC50 that approximates it; ≥ and ≤ were set here for values at or beyond the usual limits of such assays; details: source organism: Yersinia pestis
HLA-A*03:01 [10] = assay: as above; details: source organism: Yersinia pestis
HLA-A*26:01 [11] = assay: as above; details: source organism: Yersinia enterocolitica subsp. enterocolitica 8081
HLA-B*07:02 = assay: as above; details: source organism: Yersinia pestis
HLA-B*08:02 = assay: as above; details: source organism: Yersinia enterocolitica subsp. enterocolitica 8081
HLA-B*08:03 = assay: as above; details: source organism: Yersinia enterocolitica subsp. enterocolitica 8081
HLA-B*15:01 [12] = assay: as above; details: source organism: Yersinia pestis
HLA-B*18:01 [13] = assay: as above; details: source organism: Yersinia pestis
HLA-B*27:05 = assay: as above; details: source organism: Yersinia pestis
HLA-B*39:01 [14] = assay: as above; details: source organism: Yersinia enterocolitica subsp. enterocolitica 8081
HLA-B*40:01 = assay: as above; details: source organism: Yersinia pestis
HLA-B*46:01 [15] = assay: as above; details: source organism: Yersinia pestis
HLA-B*48:01 = assay: as above; details: source organism: Yersinia pestis
HLA-B*57:01 [16] = assay: as above; details: source organism: Yersinia pestis
HLA-B*58:01 = assay: as above; details: source organism: Yersinia pestis
HLA-A*01:01 = assay: IEDB peptide-MHC binding, purified MHC/competitive/fluorescence; filed as Kd, often an IC50 or EC50 that approximates it; ≥ and ≤ were set here for values at or beyond the usual limits of such assays; details: source organism: Yersinia pestis Nepal516
HLA-A*02:06 = assay: as above; details: source organism: Yersinia pestis Nepal516
HLA-A*26:02 = assay: as above; details: source organism: Yersinia pestis Nepal516
HLA-A*26:03 = assay: as above; details: source organism: Yersinia pestis Nepal516
[17] = source organism: Entamoeba dispar SAW760
[18] = source organism: Coxiella burnetii RSA 331
[19] = source organism: Deerpox virus W-848-83

Q: Which Kd (HLA-A*02:01 [1]; [17]) does the source give for FELLHFISS here?
A: ≥ 20 µM

Q: And the Kd (HLA-A*02:03; [17])?
A: ≥ 20 µM

Q: What about the Kd (HLA-A*02:11; [17]) of the same sequence?
A: ≥ 20 µM

Q: What about the Kd (HLA-A*02:12; [17]) of the same sequence?
A: ≥ 20 µM

Q: And the Kd (HLA-A*02:16; [17])?
A: ≥ 20 µM

Q: What about the Kd (HLA-A*02:19; [17]) of the same sequence?
A: ≥ 20 µM

Q: What about the Kd (HLA-A*03:01 [2]) of the same sequence?
A: ≥ 20 µM

Q: What about the Kd (HLA-A*24:03; [17]) of the same sequence?
A: ≥ 20 µM

Q: What about the Kd (HLA-A*26:01 [3]; [17]) of the same sequence?
A: ≥ 20 µM

Q: What about the Kd (HLA-A*29:02) of the same sequence?
A: ≥ 20 µM

Q: And the Kd (HLA-A*68:02; [17])?
A: ≥ 20 µM

Q: And the Kd (HLA-A*69:01; [17])?
A: ≥ 20 µM

Q: And the Kd (HLA-B*15:01 [4]; [17])?
A: ≥ 20 µM

Q: What about the Kd (HLA-B*15:17) of the same sequence?
A: ≥ 20 µM

Q: What about the Kd (HLA-B*18:01 [5]; [17]) of the same sequence?
A: 0.564 µM

Q: And the Kd (HLA-B*27:03; [17])?
A: ≥ 20 µM

Q: And the Kd (HLA-B*39:01 [6]; [17])?
A: ≥ 20 µM

Q: And the Kd (HLA-B*46:01 [7]; [17])?
A: ≥ 20 µM

Q: What about the Kd (HLA-B*51:01; [17]) of the same sequence?
A: ≥ 20 µM

Q: What about the Kd (HLA-B*57:01 [8]; [17]) of the same sequence?
A: ≥ 20 µM

Q: Which Kd (HLA-A*02:01 [1]; source organism: Shigella boydii Sb227) does the source give for FLSHKIHVI here?
A: 0.0016 µM

Q: What about the Kd (HLA-B*08:01) of the same sequence?
A: 0.0861 µM

Q: For HMNKLPLAK, which Kd (HLA-A*02:01 [1]; [18]) is on record?
A: ≥ 20 µM

Q: And the Kd (HLA-A*02:03; [18])?
A: ≥ 20 µM

Q: And the Kd (HLA-A*02:11; [18])?
A: ≥ 20 µM

Q: What about the Kd (HLA-A*02:12; [18]) of the same sequence?
A: ≥ 20 µM

Q: What about the Kd (HLA-A*02:16; [18]) of the same sequence?
A: ≥ 20 µM

Q: What about the Kd (HLA-A*02:19; [18]) of the same sequence?
A: ≥ 20 µM

Q: What about the Kd (HLA-A*24:03; [18]) of the same sequence?
A: ≥ 20 µM

Q: What about the Kd (HLA-A*26:01 [3]; [18]) of the same sequence?
A: ≥ 20 µM

Q: What about the Kd (HLA-A*31:01) of the same sequence?
A: 0.223 µM

Q: And the Kd (HLA-A*68:02; [18])?
A: ≥ 20 µM

Q: What about the Kd (HLA-A*69:01; [18]) of the same sequence?
A: ≥ 20 µM

Q: And the Kd (HLA-B*15:01 [4]; [18])?
A: ≥ 20 µM

Q: And the Kd (HLA-B*18:01 [5]; [18])?
A: ≥ 20 µM

Q: And the Kd (HLA-B*27:03; [18])?
A: ≥ 20 µM

Q: What about the Kd (HLA-B*39:01 [6]; [18]) of the same sequence?
A: ≥ 20 µM

Q: And the Kd (HLA-B*46:01 [7]; [18])?
A: ≥ 20 µM

Q: What about the Kd (HLA-B*51:01; [18]) of the same sequence?
A: ≥ 20 µM

Q: And the Kd (HLA-B*57:01 [8]; [18])?
A: ≥ 20 µM

Q: Which Kd (HLA-A*02:01 [9]) does the source give for QWSPGPGRL here?
A: ≥ 20 µM

Q: And the Kd (HLA-A*03:01 [10])?
A: 0.719 µM

Q: What about the Kd (HLA-A*26:01 [11]) of the same sequence?
A: ≥ 20 µM

Q: And the Kd (HLA-B*07:02)?
A: ≥ 20 µM

Q: What about the Kd (HLA-B*08:02) of the same sequence?
A: ≥ 20 µM

Q: What about the Kd (HLA-B*08:03) of the same sequence?
A: ≥ 20 µM

Q: And the Kd (HLA-B*15:01 [12])?
A: ≥ 20 µM

Q: And the Kd (HLA-B*18:01 [13])?
A: ≥ 20 µM

Q: What about the Kd (HLA-B*27:05) of the same sequence?
A: ≥ 20 µM

Q: What about the Kd (HLA-B*39:01 [14]) of the same sequence?
A: ≥ 20 µM

Q: What about the Kd (HLA-B*40:01) of the same sequence?
A: ≥ 20 µM

Q: And the Kd (HLA-B*46:01 [15])?
A: ≥ 20 µM

Q: What about the Kd (HLA-B*48:01) of the same sequence?
A: ≥ 20 µM

Q: What about the Kd (HLA-B*57:01 [16]) of the same sequence?
A: ≥ 20 µM

Q: What about the Kd (HLA-B*58:01) of the same sequence?
A: ≥ 20 µM

Q: And the Kd (HLA-A*01:01)?
A: ≥ 20 µM

Q: What about the Kd (HLA-A*02:03; source organism: Yersinia pestis Nepal516) of the same sequence?
A: 4.85 µM

Q: And the Kd (HLA-A*02:06)?
A: 0.157 µM

Q: What about the Kd (HLA-A*26:02) of the same sequence?
A: ≥ 20 µM

Q: And the Kd (HLA-A*26:03)?
A: ≥ 20 µM

Q: Which results are given for YVAGITLTH?
A: Kd (HLA-A*02:01 [1]; [19]): ≥ 20 µM; Kd (HLA-A*02:03; [19]): ≥ 20 µM; Kd (HLA-A*02:11; [19]): ≥ 20 µM; Kd (HLA-A*02:12; [19]): ≥ 20 µM; Kd (HLA-A*02:16; [19]): ≥ 20 µM; Kd (HLA-A*02:19; [19]): ≥ 20 µM; Kd (HLA-A*69:01; [19]): ≥ 20 µM; Kd (HLA-B*18:01 [5]; [19]): ≥ 20 µM; Kd (HLA-B*27:03; [19]): ≥ 20 µM; Kd (HLA-B*39:01 [6]; [19]): ≥ 20 µM; Kd (HLA-B*51:01; [19]): ≥ 20 µM; Kd (HLA-B*57:01 [8]; [19]): ≥ 20 µM
